The series concerns the molecule itself. In words: cross-linking.

B1: IRE1α* (cytosolic kinase and RNase domains of human IRE1α, residues 469-977) (domain or fragment, UniProt O75460 469-977, looked up)
chain: HQQQQLQHQQFQKELEKIQLLQQQQQQLPFHPPGDTAQDGELLDTSGPYSESSGTSSPSTSPRASNHSLCSGSSASKAGSSPSLEQDDGDEETSVVIVGKISFCPKDVLGHGAEGTIVYRGMFDNRDVAVKRILPECFSFADREVQLLRESDEHPNVIRYFCTEKDRQFQYIAIELCAATLQEYVEQKDFAHLGLEPITLLQQTTSGLAHLHSLNIVHRDLKPHNILISMPNAHGKIKAMISDFGLCKKLAVGRHSFSRRSGVPGTEGWIAPEMLSEDCKENPTYTVDIFSAGCVFYYVISEGSHPFGKSLQRQANILLGACSLDCLHPEKHEDVIARELIEKMIAMDPQKRPSAKHVLKHPFFWSLEKQLQFFQDVSDRIEKESLDGPIVKQLERGGRAVVKMDWRENITVPLQTDLRKFRTYKGGSVRDLLRAMRNKKHHYRELPAEVRETLGSLPDDFVCYFTSRFPHLLAHTYRAMELCSHERLFQPYYFHEPPEPQPPVTPDAL
As for B1, the binding result is given as “binds”.

Values taken from article PMC5497784 (Cell metabolism, 2017).
